# Measured values as given in the RNAGym collection of RNA variant scans (doi:10.1073/pnas.2313332121).
# B1: TPR t1 (parent)
# chain: GACCAAUCUGCCCUCAGAGCUCGAGAACAUCUUCGGAUGCAGAGGAGGCAGGCUUCGGUGGCGCGAUAGCGCCAACGUCCUCAACCUCCAAUGCAUCCCACCACAUGAUGAUGCCUGAAGAGCCUUGGUUUUUUG
# Variants of: B1
# Assay: polymerase ribozyme fitness, log enrichment relative to wild type (log ratio); higher = more active; in vitro selection for triplet polymerase activity
# How it was run: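 One round of in vitro selection, in triplicate, was applied to PCR-built, transcribed mutant libraries of each subunit of a heterodimeric triplet polymerase ribozyme. The steps were annealing with a biotinylated primer, partner subunit and triplets, incubation frozen at −7 °C, gel excision of extended constructs, streptavidin-bead capture and RT-PCR. Fitness is the logarithm, base 2, of genotype enrichment over wild-type enrichment from inverse-variance-weighted replicate averages of Illumina-sequenced inputs and outputs, keeping genotypes with ≥10 input reads and ≥1 read per output.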
row,Variant,polymerase ribozyme fitness (log ratio)
1,GACCAAUCUGCCCUCAGAGCUCGAGAACAUCUUCGGAUGCAGAGGAGGCAGGCUUAGGUGGCGCGUUAGCCCCAACGUCCUCAACCUCCAAUGCAUCCCACCACAUGAUGAUGCCUGAAUAGCCUUGGUUUUUUG [C56A A66U G71C G120U],-7.24
2,GACCAAUCUGCCCUCAGAGCUCGAGAACAUCUUCGGAUGCAGAGGAGGCAGGCUGCGGUGGCGCGAUAGCGCCAACGUCCUCAAACUCCAAGGCAUCCCACCACAAGAUGAUGCCUGAAGAGCCUUGGUUUUUUG [U55G C85A U92G U106A],-5.73
3,GACCAAUCUGCCCUCAGAGCUCGAGAACAUCUUCGGAUGCAGAGGAGGCAGGCUUAGGUGGCGCGAUAGCGCCAACGUCCUCAACCUCCAAUGCCUCCCACCACAAGAUGAUGCCUGAAGAGCUUUGGUUUUUUG [C56A A95C U106A C124U],0.424
4,GACCAAUCUGCCCUCAGAGCUCGAGAACAUCUUCGGAUGCAGAGGAGGCAGGCUUAGGUGGCGCGAUAGCGCCAACGUCCUCGACCUCCAAUGCAUCCCACCACAUGAUGAUGCCUGAAGAGCCUUGGGUUUUUG [C56A A83G U129G],-2.3
5,GACCAAUCUGCCCUCAGAGCUCGAGAACAUCUUCGGAUGCAGAGGAGGCAGGCUUAGGUGGCGCGAUAGCGCCAACGUCCUCAACCUCCAAUGCCUCCCACAACAUGAUGAUGCCUGAAGAGCCUUGGUUUUUUG [C56A A95C C102A],-3.39
6,GACCAAUCUGCCCUCAGAGCUCGAGAACAUCUUCGGAUGCAGAGGAGGCAGGCUUAGGUGGCGCGAUAGCGCCAACGUCCUCAUCCUCCAAUGAAUCCCACCACAUGAUGAUGACUGAAGAGCCUUGGUUUUUUG [C56A A84U C94A C114A],-3.7
7,GACCAAUCUGCCCUCAGAGCUCGAGAACAUCUUCGGAUGCAGAGGAGGCAGGCUGCGGUGCCGCGAUAGCGCCAACGUCCUCAACCUCCAAUGCAUCCCACCACAUGAUGAUGCCUGAAGAGCCUUGGUUUUUUG [U55G G61C],-1.85
8,GACCAAUCUGCCCUCAGAGCUCGAGAACAUCUUCGGAUGCAGAGGAGGCAGGCUGCGGUGGCGCGAUAGCGCCAACGUCCUCAAUCUCCAAUGCAUCCCACCACAUGAUGAUGCCUGAAGAGCCUUGGUUUUUUG [U55G C85U],-0.919
9,GACCAAUCUGCCCUCAGAGCUCGAGAACAUCUUCGGAUGCAGAGGAGGCAGGCUGCGGUGGCGCGAUAGUGCCAACGUCCUCAACCUCAAAUGCAUCCCACCAUAUGAUGAUGCCUGAAGAGCCUUGGUUUUUUG [U55G C70U C89A C104U],-2.38
10,GACCAAUCUGCCCUCAGAGCUCGAGAACAUCUUCGGAUGCAGAGGAGGCAGGCUGCGGUGGCGCGAUAGCGUCAACGUCCUCAACCUGCAAUGCAUCCCACCACAUGAUGAUGCCUGAAGAGCCUUGGUUUUUUG [U55G C72U C88G],-1.33
11,GACCAAUCUGCCCUCAGAGCUCGAGAACAUCUUCGGAUGCAGAGGAGGCAGGCUUAGGUGGCGCGAUAGCGCCAACGUCCUCAGCCUCCAAUGCAUCCCACCAUAUGAUGAUGCCUGAAAAGCCUUGGUUUUUUG [C56A A84G C104U G120A],-1.12
12,GACCAAUCUGCCCUCAGAGCUCGAGAACAUCUUCGGAUGCAGAGGAGGCAGGCUGCGGUGGCGCGAUAGCGGCAACGUCCUUAACCUCCAAUGCAUCCCUCCACAUGAUGAUUCCUGAAGAGCCUUGGUUUUUUG [U55G C72G C82U A100U G113U],-5.31
13,GACCAAUCUGCCCUCAGAGCUCGAGAACAUCUUCGGAUGCAGAGGAGGCAGGCUGCGGUGGCGCGAUAGCGCCAACGUCCUCAACCUACAAUGCAUCCCACCACAUGAUGAUGCUUGAAGAGCAUUGUUUUUUUG [U55G C88A C115U C124A G128U],-4.24
14,GACCAAUCUGCCCUCAGAGCUCGAGAACAUCUUCGGAUGCAGAGGAGGCAGGCUGUGGUGGCGCGAUAGCGCCAACGUCCUCAACCUCCAAUGCAUCCCACCACAUGAUGAUGCCUAAAGAGCCUUGGUUUUUUC [U55G C56U G117A G135C],-2.53
15,GACCAAUCUGCCCUCAGAGCUCGAGAACAUCUUCGGAUGCAGAGGAGGCAGGCUGCGGUGGCGCGAUAGCGCAAACGUCCUCAACCUCCAAUGCAUCCCACCACAUGAUGAUGCCUGAAGAGCCUUGGUUUUUUG [U55G C73A],0.256
16,GACCAAUCUGCCCUCAGAGCUCGAGAACAUCUUCGGAUGCAGAGGAGGCAGGCUGCGGUGGCGCGAUAGCGCCAACGUCCUAAACCUCCAAUGCAUCCCACCACAUGAUGAUGCCUGAAGAGCCUUGGUUUUUUG [U55G C82A],-0.266
17,GACCAAUCUGCCCUCAGAGCUCGAGAACAUCUUCGGAUGCAGAGGAGGCAGGCUGCGGUGGCGCGAUAGCGUCAACGUCCUCAACCCCCAAUGCAUCCCACCACAUUAUGAUGCCUGAAGAGCCUUGGUUUUUUG [U55G C72U U87C G107U],-4.49
18,GACCAAUCUGCCCUCAGAGCUCGAGAACAUCUUCGGAUGCAGAGGAGGCAGGCUGCGGUGGAGCGAUAGCGCCAACGUCCUCAACCUCCAAUGCAUCCCACCACAUGAUGAUGCCUGAAGAGCCUUGGUUUUUUG [U55G C62A],-0.186
19,GACCAAUCUGCCCUCAGAGCUCGAGAACAUCUUCGGAUGCAGAGGAGGCAGGCUGCGGUGGGGCGAUAGCGCCAACGUCCUCAACCUCCAAUGCAUCCCACCACAUGAUGAUGCCUGAAGAGCCUUGGUUUUUUG [U55G C62G],-0.626
20,GACCAAUCUGCCCUCAGAGCUCGAGAACAUCUUCGGAUGCAGAGGAGGCAGGCUGCGGUGGCGCGAUAGCGCCAACGUCCACAACCUCCAAUGCAUCCCACCACAUGAUGAUGCCUGAUGAGCCUUGGUUUUUUG [U55G U81A A119U],-1.33
21,GACCAAUCUGCCCUCAGAGCUCGAGAACAUCUUCGGAUGCAGAGGAGGCAGGCUGCGGUGGCGCGAUAGCGCCAACGUCCUCAACCUCCAAUGCAUCCCACCACAUGAUGAUGCCUGAAGAGGCUUGGUUUUUUG [U55G C123G],2.06
